Test results published in publication PMC3919030 (Journal of molecular biology, 2013).
Blank lines part the entries; values can stand above or below the binder they belong to.

B7: S. cerevisiae Vps4p(E233Q) (enzyme, UniProt P52917 1-437, looked up)
chain: MSTGDFLTKGIELVQKAIDLDTATQYEEAYTAYYNGLDYLMLALKYEKNPKSKDLIRAKFTEYLNRAEQLKKHLESEEANAAKKSPSAGSGSNGGNKKISQEEGEDNGGEDNKKLRGALSSAILSEKPNVKWEDVAGLEGAKEALKEAVILPVKFPHLFKGNRKPTSGILLYGPPGTGKSYLAKAVATEANSTFFSVSSSDLVSKWMGESEKLVKQLFAMARENKPSIIFIDQVDALTGTRGEGESEASRRIKTELLVQMNGVGNDSQGVLVLGATNIPWQLDSAIRRRFERRIYIPLPDLAARTTMFEINVGDTPCVLTKEDYRTLGAMTEGYSGSDIAVVVKDALMQPIRKIQSATHFKDVSTEDDETRKLTPCSPGDDGAIEMSWTDIEADELKEPDLTIKDFLKAIKSTRPTVNEDDLLKQEQFTRDFGQEGN

Key:
[1] = target: T1, S. cerevisiae Vps4p (wild type) (S. cerevisiae, UniProt P52917 1-437); experiment: SEC
T1 sequence (looked up): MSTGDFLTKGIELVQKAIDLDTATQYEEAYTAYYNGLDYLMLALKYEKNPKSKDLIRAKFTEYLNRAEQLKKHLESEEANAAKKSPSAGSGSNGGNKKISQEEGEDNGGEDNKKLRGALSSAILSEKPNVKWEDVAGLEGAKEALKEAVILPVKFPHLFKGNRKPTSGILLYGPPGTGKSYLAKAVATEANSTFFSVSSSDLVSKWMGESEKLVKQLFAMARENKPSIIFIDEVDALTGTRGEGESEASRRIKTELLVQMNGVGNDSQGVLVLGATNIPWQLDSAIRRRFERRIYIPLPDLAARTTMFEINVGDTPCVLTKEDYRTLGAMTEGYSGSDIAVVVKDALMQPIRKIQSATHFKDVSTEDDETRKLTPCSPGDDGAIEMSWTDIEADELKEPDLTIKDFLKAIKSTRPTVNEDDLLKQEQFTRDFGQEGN

[2] = target: B7; experiment: SEC
AUC = target: the molecule itself; experiment: AUC
SEC [3] = target: the molecule itself; experiment: SEC
SEC [4] = target: the molecule itself; experiment: SEC; remark: listed apart in the source
SEC [5] = target: the molecule itself; experiment: SEC; remark: listed apart in the source
SEC [6] = target: the molecule itself; experiment: SEC; remark: listed apart in the source
SEC [7] = target: the molecule itself; experiment: SEC; remark: listed apart in the source
crystal structure = target: the molecule itself; experiment: crystal structure

- binding result [1]: binds
- binding result [2]: binds
B1: S. cerevisiae Vta1p (natural protein, UniProt Q06263 1-330, looked up)
chain: MASNAARVVATAKDFDKVGLGIIGYYLQLYAVELILSEEDRSQEMTALATELLDTIEAFKKEIGGESEAEDSDKSLHVMNTLIHDQEKAKIYMLNFTMSLYNEKLKQLKDGPWDVMLKRSLWCCIDLFSCILHLWKENISETSTNSLQKRIKYCKIYLSKLAKGEIGSSDEKTLDYADFADDSEEIKDEDVDHQTSDLENNNNDKVEGLAPKDQTTSYEPVDEVPEFIDDADSVNEEEQTVDKNEDAITKDEQQVVKKEVDLTRPSAPSEPAAAEHKSYTKDELTKIMDRASKIEQIQKLAKYAISALNYEDLPTAKDELTKALDLLNSI

B2: Sulfolobus solfataricus Vps4 (SsoVps4, wild type) (enzyme, UniProt Q97ZJ7 1-372, looked up)
chain: MSAQVMLEDMARKYAILAVKADKEGKVEDAITYYKKAIEVLSQIIVLYPESVARTAYEQMINEYKKRISYLEKVLPASSDGSGDNTSPPEEVVITEKPKVSFKDIVGLDDVKEALREAIIYPTKRPDLFPLGWPRGILLYGPPGCGKTMIAAAVANEIDSIFMQLDAASVMSKWLGEAEKNVANVFKMAREESKKQNKPAIIFIDELDALLGVYSTEVGGEARVRNQFLKEMDGLLDKSENYKVYVIGATNKPWRLDEAFLRRFQKRIYVPLPDYEQRLSLFKYYTSKIKLDTEVSLEELAKLTEGYTASDIRDIVQAAHIKVVKEMFKNNLGEPRTITLQDFKDILKVRMPSVNPELIKAYEAWTEKFKAL
- stoichiometry N (AUC): 6
- stoichiometry N (SEC [3]): 12
- stoichiometry N (SEC [4]): ~6

B3: SsoVps4(F328A) (enzyme, Sulfolobus solfataricus, UniProt Q97ZJ7 1-372, looked up)
chain: MSAQVMLEDMARKYAILAVKADKEGKVEDAITYYKKAIEVLSQIIVLYPESVARTAYEQMINEYKKRISYLEKVLPASSDGSGDNTSPPEEVVITEKPKVSFKDIVGLDDVKEALREAIIYPTKRPDLFPLGWPRGILLYGPPGCGKTMIAAAVANEIDSIFMQLDAASVMSKWLGEAEKNVANVFKMAREESKKQNKPAIIFIDELDALLGVYSTEVGGEARVRNQFLKEMDGLLDKSENYKVYVIGATNKPWRLDEAFLRRFQKRIYVPLPDYEQRLSLFKYYTSKIKLDTEVSLEELAKLTEGYTASDIRDIVQAAHIKVVKEMAKNNLGEPRTITLQDFKDILKVRMPSVNPELIKAYEAWTEKFKAL
- stoichiometry N (SEC [4]): 2

B4: SsoVps4(R263A) (enzyme, Sulfolobus solfataricus, UniProt Q97ZJ7 1-372, looked up)
chain: MSAQVMLEDMARKYAILAVKADKEGKVEDAITYYKKAIEVLSQIIVLYPESVARTAYEQMINEYKKRISYLEKVLPASSDGSGDNTSPPEEVVITEKPKVSFKDIVGLDDVKEALREAIIYPTKRPDLFPLGWPRGILLYGPPGCGKTMIAAAVANEIDSIFMQLDAASVMSKWLGEAEKNVANVFKMAREESKKQNKPAIIFIDELDALLGVYSTEVGGEARVRNQFLKEMDGLLDKSENYKVYVIGATNKPWRLDEAFLRAFQKRIYVPLPDYEQRLSLFKYYTSKIKLDTEVSLEELAKLTEGYTASDIRDIVQAAHIKVVKEMFKNNLGEPRTITLQDFKDILKVRMPSVNPELIKAYEAWTEKFKAL
- binding result (SEC [5]): binds

B5: SsoVps4(R262A) (enzyme, Sulfolobus solfataricus, UniProt Q97ZJ7 1-372, looked up)
chain: MSAQVMLEDMARKYAILAVKADKEGKVEDAITYYKKAIEVLSQIIVLYPESVARTAYEQMINEYKKRISYLEKVLPASSDGSGDNTSPPEEVVITEKPKVSFKDIVGLDDVKEALREAIIYPTKRPDLFPLGWPRGILLYGPPGCGKTMIAAAVANEIDSIFMQLDAASVMSKWLGEAEKNVANVFKMAREESKKQNKPAIIFIDELDALLGVYSTEVGGEARVRNQFLKEMDGLLDKSENYKVYVIGATNKPWRLDEAFLARFQKRIYVPLPDYEQRLSLFKYYTSKIKLDTEVSLEELAKLTEGYTASDIRDIVQAAHIKVVKEMFKNNLGEPRTITLQDFKDILKVRMPSVNPELIKAYEAWTEKFKAL
- binding result (SEC [5]): binds

B6: SsoVps4(E206Q) (enzyme, Sulfolobus solfataricus, UniProt Q97ZJ7 1-372, looked up)
chain: MSAQVMLEDMARKYAILAVKADKEGKVEDAITYYKKAIEVLSQIIVLYPESVARTAYEQMINEYKKRISYLEKVLPASSDGSGDNTSPPEEVVITEKPKVSFKDIVGLDDVKEALREAIIYPTKRPDLFPLGWPRGILLYGPPGCGKTMIAAAVANEIDSIFMQLDAASVMSKWLGEAEKNVANVFKMAREESKKQNKPAIIFIDQLDALLGVYSTEVGGEARVRNQFLKEMDGLLDKSENYKVYVIGATNKPWRLDEAFLRRFQKRIYVPLPDYEQRLSLFKYYTSKIKLDTEVSLEELAKLTEGYTASDIRDIVQAAHIKVVKEMFKNNLGEPRTITLQDFKDILKVRMPSVNPELIKAYEAWTEKFKAL
- stoichiometry N (SEC [3]): 12
- stoichiometry N (SEC [4]): ~6

Binder: B7
- stoichiometry N (SEC [6]): 6
- stoichiometry N (SEC [7]): 12

B8: SsoVps4(85-372, E206Q) (domain or fragment, Sulfolobus solfataricus, UniProt Q97ZJ7 85-372, looked up)
chain: NTSPPEEVVITEKPKVSFKDIVGLDDVKEALREAIIYPTKRPDLFPLGWPRGILLYGPPGCGKTMIAAAVANEIDSIFMQLDAASVMSKWLGEAEKNVANVFKMAREESKKQNKPAIIFIDQLDALLGVYSTEVGGEARVRNQFLKEMDGLLDKSENYKVYVIGATNKPWRLDEAFLRRFQKRIYVPLPDYEQRLSLFKYYTSKIKLDTEVSLEELAKLTEGYTASDIRDIVQAAHIKVVKEMFKNNLGEPRTITLQDFKDILKVRMPSVNPELIKAYEAWTEKFKAL
modifications: selenomethionine-substituted
- binding result (crystal structure): binds
